Target: ZF-GDH (Zif268 fused to N-terminus of AfGDH) (mouse (Zif268); Aspergillus flavus (GDH), UniProt P08046 336-416)
Test: method not stated; states fusion kept dsDNA binding, with ref 25; TBS: 10 mM Tris-HCl, 100 mM NaCl, pH 7.0; washes with 0.05% Tween-20, block 4% skim milk; 25 °C, 1 h

B1: Zif268 target dsDNA (dsDNA)
DNA 1: GCGTGGGCG
DNA 2: CGCCCACGC
B1: binds.
